In US20200223906A1:

Assays:
[1] = biological target: human metapneumovirus (HMPV) F protein on GFP-expressing hMPV recombinant virus (NL/1/00, A1 sublineage) (human metapneumovirus); test: cell-based or functional assay
[2] = biological target: RSV F protein of subtype A (strain A2) on recombinant mKate-RSV (respiratory syncytial virus subtype A (strain A2)) (UniProt P03420); test: cell-based or functional assay

## MPE8 (antibody)
[1]
  HMPV-A1 IC50: 0.07 µg/mL
[2]
  RSV-A2 IC50: 0.04 µg/mL
